This is an account of results in publication PMC2855102.

The target of assay [1] is actin (thin filament, F-actin) of bovine myocardium (bovine (endogenous in left ventricle and left atrium)) (UniProt Q3ZC07).
Assay [2] shares this target. The source holds these as a separate data set.
The target is the same in assay [3]. This is another data set of the same source.
Assay [4] concerns the target actin (thin filament, F-actin) of mouse left ventricular myocardium (mouse (endogenous in C57/BL6 left ventricle)) (UniProt P68033).
The target is the same in assay [5]. This is another data set of the same source.
Assay [6] has the same target. This is another data set of the same source.
Assay [7] has the same target. The source holds these as a separate data set.

Take “titin of bovine left atrial myocardium, mainly the N2BA isoform (natural protein)”: in assay [1], the reduction of total passive tension during stretch of skinned BLA after thin filament (actin) extraction with gelsolin, at SL 2.25 μm worked out at 10%. Also, the reduction of titin-based passive tension of skinned BLA after thin filament (actin) extraction with gelsolin, at SL 2.25 μm (calculated from total tension with titin's fractional contribution) in assay [2] is 12%. This substance returned a decrease of hysteresis (area of the force-length loop of stretch-release cycles) of skinned BLA after actin extraction with gelsolin, at SL 2.25 μm in assay [3] of 35%.
“titin (connectin) of mouse left ventricular myocardium, predominately the N2B isoform (natural protein)”: in assay [4], the reduction of total passive tension during stretch of skinned MLV after thin filament (actin) extraction with gelsolin, at SL 2.25 μm is 22%. In addition, the reduction of titin-based passive tension of skinned MLV after thin filament (actin) extraction with gelsolin, at SL 2.25 μm (calculated from total tension with titin's fractional contribution) in assay [5] was 44%. Moreover, the decrease of hysteresis (area of the force-length loop of stretch-release cycles) of skinned MLV after actin extraction with gelsolin, at SL 2.25 μm in assay [6] was determined as 33%. Besides, the decrease of passive stiffness/tension during stretch of skinned MLV with both S100A1 (1 μg/μL, Sigma) and calcium (pCa 6.8), relative to pCa 9.0; stretch speeds 0.1 and 2.0 length/sec in assay [7] is less than 20%.
“titin of bovine left ventricular myocardium, a mixture of the N2B and N2BA isoforms (natural protein)” registered a reduction of total passive tension during stretch of skinned BLV after thin filament (actin) extraction with gelsolin, at SL 2.25 μm in assay [1] of 17%. Further, the reduction of titin-based passive tension of skinned BLV after thin filament (actin) extraction with gelsolin, at SL 2.25 μm (calculated from total tension with titin's fractional contribution) in assay [2] was 20%. Besides, the decrease of hysteresis (area of the force-length loop of stretch-release cycles) of skinned BLV after actin extraction with gelsolin, at SL 2.25 μm in assay [3] came out at 52%.
